Data as given in article PMC3963495.

Target: microtubules (polymer of tubulin)
Assay: single-molecule TIRF microscopy on microtubules

microtubules (polymer of tubulin), sequence (P68363 whole entry, chain 1 of 2): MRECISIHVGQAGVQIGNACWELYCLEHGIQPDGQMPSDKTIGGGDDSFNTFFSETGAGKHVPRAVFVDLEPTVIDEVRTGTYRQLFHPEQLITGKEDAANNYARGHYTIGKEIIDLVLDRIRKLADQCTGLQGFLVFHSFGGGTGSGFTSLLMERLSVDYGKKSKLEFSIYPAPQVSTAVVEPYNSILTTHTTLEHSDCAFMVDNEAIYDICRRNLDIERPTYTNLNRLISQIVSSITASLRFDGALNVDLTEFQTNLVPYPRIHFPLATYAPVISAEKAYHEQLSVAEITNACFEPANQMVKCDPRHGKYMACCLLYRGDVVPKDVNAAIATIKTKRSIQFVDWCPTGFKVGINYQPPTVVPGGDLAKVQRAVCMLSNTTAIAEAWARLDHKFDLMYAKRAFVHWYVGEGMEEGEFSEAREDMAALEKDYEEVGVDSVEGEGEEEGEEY
microtubules (polymer of tubulin), sequence (A8K068 whole entry, chain 2 of 2, further chain): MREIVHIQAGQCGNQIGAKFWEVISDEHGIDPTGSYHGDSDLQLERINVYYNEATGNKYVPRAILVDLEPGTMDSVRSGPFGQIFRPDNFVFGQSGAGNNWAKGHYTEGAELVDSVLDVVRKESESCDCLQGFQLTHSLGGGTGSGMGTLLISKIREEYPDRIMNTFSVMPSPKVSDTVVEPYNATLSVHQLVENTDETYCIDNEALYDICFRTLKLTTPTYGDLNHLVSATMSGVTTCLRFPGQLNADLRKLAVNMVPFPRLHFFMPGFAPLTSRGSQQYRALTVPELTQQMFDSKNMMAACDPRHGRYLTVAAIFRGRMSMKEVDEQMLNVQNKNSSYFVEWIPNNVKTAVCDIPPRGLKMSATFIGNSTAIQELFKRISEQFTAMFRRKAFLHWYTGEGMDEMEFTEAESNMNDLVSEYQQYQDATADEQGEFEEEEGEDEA

Which dwell time does the source give for “EB1_(FKBP) (human EB1 fused at its C-terminus to FKBP)” here?
Its dwell time is 53 ms.

And the mean dwell time?
The mean dwell time was 0.054 s.
